From patent publication US20250051437A1 (University of California, published 2025)
Where no end group is shown, it is not given here.

Assays:
[1] = target: T1, recombinant CDH17 extracellular domain (ECD) with 6x His tag (human, UniProt Q12864 23-787); assay: ELISA on recombinant CDH17 ECD-6xHis
T1 construct: also called Recombinant CDH17 ECD-6xhis tag

[2] = target: T2, human CDH17-mGFP fusion protein overexpressed on HEK293T cells (clone G11) (human, UniProt Q12864 23-832); assay: KinExA, cell-based, HEK293T CDH17mGFP clone G11
T2 construct: also called HEK293T CDH17mGFP Clone G11; HEK293T Human CDH17mGFP G11; not shown: mGFP fluorescent protein fused to CDH17
Description: (§1) The cell-based antibody affinity (KD) of the anti-CDH17 antibodies was measured by KinExA 4000 (Sapidyne Instrument, Boise, Idaho). Briefly, HEK293T overexpressing CDH17-fluorescent protein fusion (i.e., human CDH17-mGFP, monkey CDH17-mGFP, mouse CDH17-mGFP or rat CDH17-mGFP) were detached with Versene and equilibrated with either 50 pM, 200 pM, 20 nM, or 50 nM antibody in 2% FBS/DMEM at 4° C. overnight. The cell concentration started at 5×10⁶ cells/mL or 1×10⁷ cells/mL and 2-fold serial dilutions were performed up to 10 points. The next day, the cells were centrifuged at 1500 rpm for 10 min and the supernatants were saved. […] In contrast, while the humanized anti-CDH17 antibody, 07-0653-h43, fails to bind mouse CDH17 protein, it binds rat CDH17 protein equally well as to human and monkey CDH17 protein such that its Kp is less than about 1 nM for human, monkey and rat CDH17 proteins with overlapping 95% confidence interval values.

[3] = target: T3, human cadherin-17 (CDH17), endogenously expressed on human cancer cell lines (LS513, SNU-C1, PaTu8988s, … (human, UniProt Q12864 23-832)); assay: flow cytometry (iQue) on LS513 cells, 0.2 µg Ab
T3 construct: also called LS513 (Colon, CDH17+); HPAF2

[4] = target: T3, human cadherin-17 (CDH17), endogenously …; assay: flow cytometry on LS513 cells (CDH17+), 20 µg/ml
[5] = target: T3, human cadherin-17 (CDH17), endogenously …; assay: flow cytometry (iQue) on PATU8988S cells, 1 µg Ab
[6] = target: T3, human cadherin-17 (CDH17), endogenously …; assay: flow cytometry (iQue) on PATU8988S cells, 0.2 µg Ab
[7] = target: T2, human CDH17-mGFP fusion protein …; assay: flow cytometry on HEK293T human CDH17mGFP G11, 20 µg/ml
[8] = target: T2, human CDH17-mGFP fusion protein …; assay: KinExA, cell-based, HEK293T overexpressing human CDH17-mGFP (FIG. 16)
Description: as §1

[9] = target: T2, human CDH17-mGFP fusion protein …; assay: KinExA, cell-based, HEK293T human CDH17mGFP G11 (same value as r12)
Description: as §1

[10] = target: T2, human CDH17-mGFP fusion protein …; assay: flow cytometry (iQue) on HEK293T CDH17 mGFP clone G11 (human), 0.2 µg Ab
Peptide 7 = target: T4, Peptide 7 (also: biotin label, position not given here); assay: titration ELISA, biotinylated peptide on streptavidin-coated plate
T4 construct: LDANGII with the seventh residue I changed to A; also called LDANGIA
T4 peptide: LDANGIA

Peptide 1 = target: T5, Peptide 1 (also: biotin label, position not given here); assay: as above
T5 construct: also called Original 7-mer peptide; LDANGII
T5 peptide: LDANGII

Peptide 2 = target: T6, Peptide 2 (also: biotin label, position not given here); assay: as above
T6 construct: LDANGII with the first residue L changed to A; also called ADANGII
T6 peptide: ADANGII

Peptide 5 = target: T7, Peptide 5 (also: biotin label, position not given here); assay: as above
T7 construct: LDANGII with the fifth residue G changed to A; also called LDANAII
T7 peptide: LDANAII

Peptide 6 = target: T8, Peptide 6 (also: biotin label, position not given here); assay: as above
T8 construct: LDANGII with the sixth residue I changed to A; also called LDANGAI
T8 peptide: LDANGAI

B1: humanized anti-CDH17 antibody 07-0663-h7 (antibody, human IgG1, kappa, V domains shown)
VH: QVQLVQSGAEVKKPGSSVKISCKVSGYTFTDHTIHWMRQAPGQGLEWIGYIFPRDDIVVYAQKFQGRATLTADKSTSTAYMELSSLRSEDTAVYYCARPPYYYSRNFYFDYWGQGTTLTVSS
VL: DIQMTQSPSSLSASVGDRVTITCRVSSIISSSKLHWYQQKPGKAPKPLIYGTSTLASGVPSRFSGSGSGTDYTLTISSLQPEDFATYYCQQWSNYPFTFGQGTKLEIKR
notes: Human IgG1 / kappa
EC50 [1]: 1.22 nM
Kd [2]: 0.152 nM
Antibody Binding Activity by Flow iQue [3]: 2.24e+06
Antibody Binding Activity by Flow Cytometry [4]: 74700
Antibody Binding Activity by Flow iQue [5]: 101000
Antibody Binding Activity by Flow iQue [6]: 102000
Cross Reactivity by Flow [7]: 57600
Kd [8]: < 1 nM
Kd [9]: 0.152 nM
Antibody Binding Activity by Flow iQue [10]: 57600
ELISA reading at 1500 ng/ml antibody, lower of two rows (Peptide 7): 2.74
ELISA reading at 1500 ng/ml antibody, upper of two rows (Peptide 7): 2.8
ELISA reading at 1500 ng/ml antibody, lower of two rows (Peptide 1): 2.76
ELISA reading at 1500 ng/ml antibody, upper of two rows (Peptide 1): 3.1
ELISA reading at 1500 ng/ml antibody, lower of two rows (Peptide 2): 2.71
ELISA reading at 1500 ng/ml antibody, upper of two rows (Peptide 2): 2.65
ELISA reading at 1500 ng/ml antibody, lower of two rows (Peptide 5): 0.0383
ELISA reading at 1500 ng/ml antibody, upper of two rows (Peptide 5): 0.0394
binding result (Peptide 5): no binding (tested: 1500 ng/ml)
ELISA reading at 1500 ng/ml antibody, lower of two rows (Peptide 6): 0.0357
ELISA reading at 1500 ng/ml antibody, upper of two rows (Peptide 6): 0.0371
binding result (Peptide 6): no binding (tested: 1500 ng/ml)
